2 molecules from paper PMC6780499, “Characterization, Recombinant Production and Structure-Function Analysis of NvCI, A Picomolar Metallocarboxypeptidase Inhibitor from the Marine Snail Nerita versicolor” (Marine Drugs, 2019) can be followed below.

In one assay the test system is bCPA and hCPA1. The assay is described as follows: Competitive (double) titration with the tight-binding inhibitor TCI. The assay is classed as biochemical. To be noted: competing assays with the similar tight-binding inhibitor TCI.
The subject of assay [1] is serine, cysteine and aspartic proteases. The assay is described as follows: Inhibition of proteases of other catalytic types. The assay is classed as biochemical. To be noted: even at tenfold excess; pepsin, papain, trypsin and subtilisin assays, 25 °C, triplicate. Here is the method: Inhibitory activities against CPA- and CPB-type forms (bovine and human variants of CPA1, CPA2, CPA4, CPB1, and TAFI) were assayed for all extracts, subject to the experimental conditions that enzyme (E), substrate (S) and inhibitor (I) concentrations as well as the [I]/[E] ratio and preincubation time followed the requirements for tight-binding inhibitor assays. Similar approaches were followed to measure the activities of proteases of different catalytic types, like pepsin, papain, trypsin and subtilisin [45, 46, 47, 48]. All assays were performed in triplicate at 25 °C in a multiplexed manner. For 96-well assays an iEMS spectrophotometer reader/dispenser FM (Labsystems, Finland) was used with a final reaction volume of 250 μL. For cuvette assays, a Cary 400 Bio spectrophotometer (Varian Inc., Palo Alto, CA, USA) spectrophotometer was used with a final reaction volume of 1 ml. The reactions were followed at 5 s intervals for 5 min and recorded as initial velocities. In the protease inhibition assays, mixtures of activity buffer, biological sample and enzyme were preincubated at 25 °C for 10min, before substrate addition. The assay conditions were as follows: for CPA-like enzymes, 7.0nM CPA, 0.1mM AAFP substrate in 20mM Tris-HCl pH 7.5, 500mMNaCl, 1% v/v dimethyl sulfoxide (DMSO), 0.05% w/v BRIJ-35 was used. […]

A further assay has as its target T1, bTAFI (Bos taurus (Bovine), UniProt Q2KIG3).
T1 chain: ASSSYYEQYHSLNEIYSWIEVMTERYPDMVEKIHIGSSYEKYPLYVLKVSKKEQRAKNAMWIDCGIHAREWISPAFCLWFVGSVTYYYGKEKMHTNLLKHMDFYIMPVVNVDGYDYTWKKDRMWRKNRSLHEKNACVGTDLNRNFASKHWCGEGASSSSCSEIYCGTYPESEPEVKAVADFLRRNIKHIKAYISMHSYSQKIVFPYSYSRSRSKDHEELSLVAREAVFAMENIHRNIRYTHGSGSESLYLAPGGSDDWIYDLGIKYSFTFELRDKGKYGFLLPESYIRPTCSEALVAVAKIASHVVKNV
The assay is described as follows: Ki, residual activity.

A further assay has as its target T2, hTAFI (Homo sapiens (Human), UniProt Q96IY4).
T2 chain: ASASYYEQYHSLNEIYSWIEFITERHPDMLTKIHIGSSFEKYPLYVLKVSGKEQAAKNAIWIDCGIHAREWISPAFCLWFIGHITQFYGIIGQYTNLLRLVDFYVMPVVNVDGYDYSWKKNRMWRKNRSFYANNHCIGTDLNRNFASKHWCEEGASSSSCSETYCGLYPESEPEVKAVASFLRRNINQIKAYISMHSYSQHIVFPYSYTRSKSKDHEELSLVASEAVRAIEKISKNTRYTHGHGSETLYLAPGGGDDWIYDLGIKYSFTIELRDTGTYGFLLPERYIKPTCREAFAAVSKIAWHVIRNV
The assay is described as follows: Ki, residual activity.

The next assay concerns the target T3, rCPA3 (Rattus norvegicus (Rat), UniProt P21961).
T3 chain: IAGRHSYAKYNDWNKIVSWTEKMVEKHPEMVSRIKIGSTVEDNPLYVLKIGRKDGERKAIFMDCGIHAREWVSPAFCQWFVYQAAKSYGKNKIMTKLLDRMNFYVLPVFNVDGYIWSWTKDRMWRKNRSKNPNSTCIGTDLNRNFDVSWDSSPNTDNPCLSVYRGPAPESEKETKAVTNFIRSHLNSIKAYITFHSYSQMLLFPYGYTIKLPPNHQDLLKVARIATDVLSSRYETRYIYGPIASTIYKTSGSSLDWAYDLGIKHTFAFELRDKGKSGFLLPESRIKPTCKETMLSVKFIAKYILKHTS
Description: Ki, residual activity.

No end group written: not given here.

In the case of “NvCI: 53-residue, three-disulphide proteinaceous metallocarboxypeptidase inhibitor from the marine snail Nerita versicolor; major isoform; UniProt P86912 (FHVPDDRPCINPGRCPLVPDATCTFVCKAADNDFGYECQHVWTFEGQRVGCYA; disulfide (positions not given here); also: three disulphides, pairing not given here; UniProt P86912 1-53, looked up)”, in the assay on bCPA and hCPA1, the “inhibitory capability / maximum potential activity by competitive titration” value stood at 50.4%. For the same molecule, the “inhibition of serine, cysteine and aspartic proteases” value in assay [1] is “unable to inhibit”.

B1: NvCI (protein)
chain: FHVPDDRPCINPGRCPLVPDATCTFVCKAADNDFGYECQHVWTFEGQRVGCYA
modifications: disulfide (positions not given here); not fully specified (bridges); ends not checked
What is called Kd is the constant that tells how readily two partners part at equilibrium. Turning to B1, the results for the Kd with bTAFI, in the assay with hTAFI and with rCPA3 were 0.0841 nM, 0.951 nM and 0.1 nM, respectively.
